Reference: PMC3484135, “A Divalent Ion Is Crucial in the Structure and Dominant-Negative Function of ID Proteins, a Class of Helix-Loop-Helix Transcription Regulators” (PLoS ONE, 2012)

Target: the molecule itself
Assay: crystal structure; hanging drop vapor diffusion; protein 7 mg/ml in 50 mM Tris pH 8.0, 100 mM NaCl; precipitant 0.1 M MES pH 6.5, 2.0 M potassium acetate; 2.1Å native dataset, phased from a Se-Met SAD dataset

B1: ID2 HLH (residues 24–82) with a C-terminal 14 amino acid stabilising polypeptide (domain or fragment, human)
chain: RSKTPVDDPMSLLYNMNDCYSKLKELVPSIPQNKKVSKMEILQHVIDYILDLQIALDSHLKPSFLVQSGDIAS
notes: ID2, human, HLH domain, residues 24–82, cloned from full-length cDNA (Genecopoeia Z0585); C-terminal 14 amino acid polypeptide added to increase stability; Expressed from pDest-565 with a TEV site at the N terminus of ID2 HLH; The native crystal is called ID2-Nterm-HLH in the methods, and a Se-Met form (ID2-HLH-Se-Met) was used for phasing; also called wild type ID2; ID2 WT; source: E. coli …
- stoichiometry N: 2
